Measurements as given in IntAct's records for PubMed 21816274.

B1: Gem-associated protein 2 (Homo sapiens), O14893 (parent)
chain: MRRAELAGLKTMAWVPAESAVEELMPRLLPVEPCDLTEGFDPSVPPRTPQEYLRRVQIEAAQCPDVVVAQIDPKKLKRKQSVNISLSGCQPAPEGYSPTLQWQQQQVAQFSTVRQNVNKHRSHWKSQQLDSNVTMPKSEDEEGWKKFCLGEKLCADGAVGPATNESPGIDYVQIGFPPLLSIVSRMNQATVTSVLEYLSNWFGERDFTPELGRWLYALLACLEKPLLPEAHSLIRQLARRCSEVRLLVDSKDDERVPALNLLICLVSRYFDQRDLADEPS

Variants of: B1
Conditions: with smn_human SMN1, Q16637
Sequence of smn_human SMN1, Q16637 (Q16637 whole entry): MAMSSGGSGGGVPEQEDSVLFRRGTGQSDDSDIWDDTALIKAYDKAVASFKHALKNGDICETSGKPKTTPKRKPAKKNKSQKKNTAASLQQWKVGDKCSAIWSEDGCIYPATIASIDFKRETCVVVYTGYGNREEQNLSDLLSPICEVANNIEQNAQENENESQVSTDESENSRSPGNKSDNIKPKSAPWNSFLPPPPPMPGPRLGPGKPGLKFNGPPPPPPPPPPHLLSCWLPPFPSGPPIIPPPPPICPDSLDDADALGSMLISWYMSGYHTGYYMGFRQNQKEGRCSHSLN

effect of a mutation on the interaction	Variant
disrupting interaction	R213D
